Measured values taken from the domain aggregation screens of Martell et al. (2025).

Assay: soluble fraction after stress (log2 fold change); higher = more stays soluble; pooled small domains, quantitative proteomics
Details: stress: 75 degC
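Further: 20 min heating vs room temperature control held 20 min.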

HMQAPVDPIVLGKMGSSYGIRGWLRVFSSTEDAESIFDYQPWFIQKAGQWQQVQLESWKHHNQDMIIKLN
soluble fraction (log2): 0.2

HMPYNNLADAPASWKKLDDTPLTLGQVNWIAKIYDALVAKGMEKGAAAGTAISRFKKSFKVADGKWVQV
soluble fraction (log2): -0.478

HMELSAEGWVDGTGVRMRASASTDSEVVRVTEDGESLDITGVSGTWYRVTAGGVSGYIRSDYVSLEEP
soluble fraction (log2): -0.0699

HMKTGAKLKNLRKMKKLSQEEVAKVLNLSYSTLSRWENDTRIPTYEDLFKLGQFYGVSVDYLSDPN
soluble fraction (log2): -0.98

HMVKRAYGEYVNVKLTDADLSKLKADFPADWQERIERLSTYMASTGKTYKNHLATIRNWARRDAERVSA
soluble fraction (log2): 0.958

HMSGPDGLTEREIEVLRLLASGLSNRAIGERLYISTNTAANHVRSILLKTGAANRTQAAMYAADHEML
soluble fraction (log2): -1.66

HMPVSRMRARHEALARGVMGIHAGGFSAVYGYRKVWHGLIGKGWDPGEVGRDQVMNIMRGLGMQGVRR
soluble fraction (log2): -0.132

HMSVDDEQLLKIIDDIFQQNPQAVTDAKTDSNAIHFLIGQVMKETKGHADHAISKEIIEKKLS
soluble fraction (log2): 0.0407

HMSETEEWTVEGGQAGDRIDRHVAAMLGDDVSRSQVQQWIRAGRVTVNGRAVKPSDTVEEGDRVAVDLPEP
soluble fraction (log2): -0.189

HMGPNSVPDLRGKSLRQAMKMVNDLELKAIFEGEGIVVGQVPAPGKPVPETKILKITLSLEPY
soluble fraction (log2): -1.58

HMDDVVVLPFTAEFARMSSDDFVREILVGKIGMKRFVVGYNHRFGSGQQGDFASLQRMQGELGFVAVRVG
soluble fraction (log2): 0.368

HMFPQQGEIRQGVIASITPDQILVNVGTKSEGIISGKELEAISKSERDSLNVDQKIAVYILDPEDSNG
soluble fraction (log2): 0.395

HMEDSSSILNRMRKLIALLNRASEAYYKENKEIISNFEYDRLYDELLGLESRSNTVLSGSPTYKV
soluble fraction (log2): -1.87

HMTFPAILRELLEKHPQTGKRTTLKELGEAVGTRQQSISLYRNGDTQPSPDILVRIAAFFGVSVDYLL
soluble fraction (log2): -0.499

HMDHFLRRFQVEGLNLEKLLRLAAEREMDLLQVRRSGRRMTGLVAEKRLPELEELAAQGGWALRLGEY
soluble fraction (log2): -0.843

HMRTITYSITPAHAGMSVERYLKQQHGYSTRTLVKLKHYPQGLQLNGQHARTVDLLQAGDTLAVTFLD
soluble fraction (log2): -2.42

HMTIDNPESQKIMDMVPFFFQSRNYDEAIEALTYVIEQEPQFSEAYNKRATFYFMMGDLENSMKDIEITLA
soluble fraction (log2): -0.29

HMSTTYAPYLLGETEQEAIRMARNAGLDPQVVRQSDKSEAGTVILQSHDFGFAMKRGAVILITVSSGPLQ
soluble fraction (log2): -2.13

HMNMEPNWLKWAKQLAALAQNGLTYSDNPYEIERYEHIRRIAAEMMAEGFELDTKTILELFPREKG
soluble fraction (log2): -2.68

HMNLGLTGDPSVLYSILLQRGDSSRADLQRQTGWSLSKTTLVLNQLLAQKLIVQVGAGRSTQYRVIN
soluble fraction (log2): -2.78

HMDGNVPSVEGKPLSGAKYILETYGYKTGTVTEVNSEDVPAGIVISQNPARGTTLANGGSVNLQVSLG
soluble fraction (log2): 0.645

HMRNSSLQTDLELRAYVIDGLNHFWTPEEIAGRWSLAHPDRPVSFATIYRHIKRKLLPGIEPKTHLRRRGK
soluble fraction (log2): -2.54

HMKIETVENPLLERTEISALFDSKSGSLTRKEAIDLISKKARIDSSTVYAIKLSNSSGSTRIIGLFY
soluble fraction (log2): 0.16

HMSTRYVRTPAGQAEIQARVFKLSRPVRNLLLVINDSRSIDDWLVQVHGITADDVAMLRAEGLIAEVS
soluble fraction (log2): -3.06

HMEKFTGELSQEEKNVLDALSHEEMHVDIIIKLTKLETSAVSSTLSLLEIKGLIKNIGGQNYIK
soluble fraction (log2): 0.543

HMNTNDFTIGTRVRTTKKGNGSSDGTSNTARSGIEGTITRIIPEAKYPYLVSTTVPMGWYKKDALEK
soluble fraction (log2): 0.00349

HMDKFKDVGARIREARKVQKLSQADLAERLQISTSHMSDIENGKKNIGLDIFMRLTEALQVSADWLL
soluble fraction (log2): -0.437

HMYSIDNPPDWLKNLPKGAIRIGVEVFNQVLSKADDEDRARMAAWSAIKAKYEKADDGQWQPKAA
soluble fraction (log2): 0.0816

HMQAGILTDTAAKNARIKKIDTERLEAELDQKRIVIVTGFQGVDRNQNITTLGRGGSDTSAVALAAAVSIT
soluble fraction (log2): 0.171

HMPVNGEFIERIKVMVLENKAKGKKERLTKTRMHQLLQEEGYKGSYSAFTHQVRIIEEELGVNQKEAH
soluble fraction (log2): -0.48

HMDNIPAHIKAKIINYVNRNYPGAIIKDIERKSNGRYEAEIVYNNREYDLLFDAQGNFISASLDDK
soluble fraction (log2): -0.0583

HMSATEPVHFDPNKSPEDMTVEELQAGILAKMANNGPVSDQMKKTVNENIWHDSLVNWLKSF
soluble fraction (log2): -0.164

HMPSSAYGPYKNVFLSNSELTKLKNELPTSWEHYINRLSEYMRSTGRQYQSHAATILRWAATDRNS
soluble fraction (log2): -0.488

HMKSATGKIPDFISDLPVDEFVRELIVTNAFQPLNKFKEVQNHIGSALKIYVDELTEKRANGTVHILYSHK
soluble fraction (log2): 0.46

HMSVFMIIVLKQHAPQEFVDMLMSSIKAKGVQIDVSKGARKTILGLVGNTSVIDREQIAGYEYVDKVIRV
soluble fraction (log2): -1.94

HMSYYKEMIRLADSIADKAHEGQTDRNGWPYISHPRRVALGARKLVSEMASSTSPDTSLEELKAEVQIVAL
soluble fraction (log2): -0.321

HMLEYIEPRTAVQIHGIKAKPELNGKRGMVMGYAPERMRYRVRIDVGEGTGGKESEEVYLKPENVIAVK
soluble fraction (log2): 0.0615

HMVAMGQRVVPLTHLSIDDVRRLLESTYGKDSGIEVTKPGTAAKGVIVTAPRTELDGIVALVKQA
soluble fraction (log2): -0.113

HMSRIDRKGLTSQIVNHLSKNPGKNFTLKQFFRNLKLNTHPLKMLAVDVLNKLLDTNFITRNEDGEFFLKA
soluble fraction (log2): 0.154

HMKLPNSFGSIQKLSGNRRKPYRVVKTIGWDENGKQIRKTLGYYETRAKALQELALFNEKPYD
soluble fraction (log2): -1.72

HMPLLSEWDAALEELWAKLGDVPMDPETERMDAPFLGFPAGTPREDIWHWFDERHSKGVAHLLYG
soluble fraction (log2): -2.46

HMGDPSSERNIQKSIFILIGEKALSVQDISRSLGMPNDIIDKALISGVERNLWLSSDKGEYYL
soluble fraction (log2): -1.2

HMSEPRYRQLATILAQEIRSNHSAGDQLPSEQALAKRFEVNRHTVRRAVDELVAAGMVTRHQGWGTQVV
soluble fraction (log2): -0.158

HMFMSDDDIRILVKEWLQSQNRKSYQLAEEIGIRPQTFYAQMSVRKISANTKKALSRIIPGL
soluble fraction (log2): -0.769

HMDANLGEIFKVYEQEIGALTPFVREEMLDAIDHYPRDWILDAIRESAKSNARNWKYTLAILKRWKAEG
soluble fraction (log2): -0.284

HMPTQGELAILRVLWEQGPSTVRAVWEKLNSQSGTGYTTALKLMQIMAQKGLVSRDESQKTHVYRA
soluble fraction (log2): -1.54

HMAPRKNIRLLRAAQDKAAAEGDHETVDAIRGQIAALIETLPVQYREEYLLQEKGRENGLKLAIENAAK
soluble fraction (log2): 0.663

HMDEMEFQKYVDQNLKQKGISLTAEAKAELLLRLGGDTMLLHSAIEKLDLYGEKNLNLNDIKHLVSLNSDV
soluble fraction (log2): 0.254

HMGAGLKIGNDHEYANYLEYKVSVEKYAPGAILGEIKQKGIQFNTTISKTTFYRYITDGVFLTITNADLPV
soluble fraction (log2): 0.374

HMQVTGLTAENAHRVTMIREKGTDHPPVPFHFRKEHHGTGNYVHLYGNPEDRNELHSRDFKDWEAVAFK
soluble fraction (log2): 0.211

HMGRHSPLSIEQKEQLKTEIVALQQQRGGGRVTAVNIAELIQQKFNVVYNPNSLYKLLKQIGMSWV
soluble fraction (log2): -1.94

HMPIDQAKRKKEIIQNFGIRKIYKFSEIFDLKFGRDNIIVTFLIILDMIKEGVVEINENKEEIEFEYK
soluble fraction (log2): -0.152

HMSSGSLLTEREIEILAEMAKGLTNKAIGEKLFISVATVKTHILNIYRKLEVSSRVTAVNKAKQMRL
soluble fraction (log2): -2.43

HMVGNYYDILGVPETATQDAIKKAFRSLAQQHHPDKNPDDPGAEAMFKKVSEAYQVLSDPDKRQTYDASL
soluble fraction (log2): -0.00926

HMPTERLSMRRIRELLRLRFEVGLSTRLIATALGISKGAVGDYLQRAQVAGLGWPLPENLNDAALERRLFP
soluble fraction (log2): -1.38

HMKPSNRSYPTALRMEVIGIIRERYADFGPTLAGEKLAELHGIHLGRETIRQWMMAAGLWKDRR
soluble fraction (log2): -1.09

HMYVTGETIRHLRTQRRMTQEQLAETLGVTGKAVSKWETGRGFPDMSLLEPLARALRISVPELLSGE
soluble fraction (log2): -1.07

HMTLREQISALIKQGKLTQAKLARETGVNGGALSAWINGKYTGNVETVEEPIKHWMALNERK
soluble fraction (log2): -0.342

HMAEANTEADFVAIGVRAELLPILQKLGVHTIEQLKGIKATKLFNDIPGMRKKLKLDAVQNPTLQEIEGWL
soluble fraction (log2): -0.146

HMGGEEINMINLVGLSQSEAENQLAKLKLKIGQVTAEYSDKPSGTVLKQSISANNKVKKGADIDIVVSKG
soluble fraction (log2): -0.0126

HMGGGVSSSLAGNVFKVLLPAGSVVEQGQAVIVLEAMKMETEVNAPKSGSVSSVFVNEGDTVEVGDLLFAI
soluble fraction (log2): -0.0461

HMKFYKMIDESDEKIENPEIMIFQIIELVSSTTYSAIINKEPVDVETLKPYLYQTIRTIIINHQS
soluble fraction (log2): 0.363

HMETYSGVERAAILVMYLERTLAKALLDHMNDEEVRRVGMAMASIDRVEGPDIERIVGDFVRELYEVS
soluble fraction (log2): -0.642

HMPNYIDAISALLTLKGVGDRKHASTMANILNLQYNSAKQKLDGKRGITLDEVKKVFQYFNEPF
soluble fraction (log2): -1.44

HMGRSTQVPGVEKMTYSQAVQLLHDHGFRVDIRDSLYRDDIKPGHVIEQFPKAKSIVKPGRKIFLYINAV
soluble fraction (log2): -1.43

HMKVTRWEDTGMKPAEAQEWQHYDFKPQEAMNWRDAGFVPLVARTWSDKGFDASEAQAWRDSVRNS
soluble fraction (log2): -0.618

HMRDTAKTLLAMEVVGENNKKNLQAFGIQKGDQNYQTAVVVRLMQKALMEGDTSAIRLIGELTGD
soluble fraction (log2): -0.0652

HMETQAGELQDAIRDAIAALPPRTREVFLMSRERNLRYGEIAEALGISVKAVEANMSRALRQLREKLSPFL
soluble fraction (log2): -1.26

HMYQKERDKEISEIETFLKKITNANGTRAYSDESIADMSYVELLNLYEGITSKLTEEEIENI
soluble fraction (log2): 0.0659

HMYNIDSFMTKNYPTMERFTLSDVQKKYKTTFGLFVKQDELASMIEKTGRFNITSSKNVKYVNR
soluble fraction (log2): -1.88

HMLLNLSPIETQVLRLIQQDKKVTYESIGKELTIGQTKVYKVLGHLKELNVIERIGGRTYGHWHILL
soluble fraction (log2): -1.33

HMTNELTEIFNSIRLTKKQKELLQSNYLSLRETYFLQGKTAFNLKFKNIAGLGKSTKKVLLEFFEESIE
soluble fraction (log2): -3.15

HMSGAQIQQLLESRAPQPGMNPDMIVRRKTYMNNVFNALKGALLRVANGSSPEEVKTEVDAAIQVDPDKL
soluble fraction (log2): 0.353

HMSKHATLLEALADLSVKLKPHSQLPSERALSEEYGVSRMTLRRAIDVLQARGYIYSVPSKGLFVSEP
soluble fraction (log2): -1.89

HMDYYKILGLSTSATLDQIKKAFRQLAIEFHPDKNPNNPTAEDKFQRISEAYAVLSNPEKRAEYDRSY
soluble fraction (log2): -0.0123

HMVDSLTIGRRIRQLRTERGMTLEELAAAVGRAPSQLSMIENGRREPKLTLLQAIARALGSTLDALLE
soluble fraction (log2): -0.562
